These are literature values, as cited in US20220401481A1, “DOSING REGIMENS FOR THE MOBILIZATION OF HEMATOPOIETIC STEM AND PROGENITOR CELLS” (Magenta Therapeutics, Inc., priority 2019, published 2022).

For data set [1] the following is noted: G-CSF; Pulsiper et al. (2009) Blood; cited from earlier work.
The subject of data set [2] is T cells, B cells and NK cells. Particulars: cited from earlier work.
Data set [3] deals with neutrophil activation markers (L-selectin, CD11b, CD18, CD66). The conditions noted are these: 5 days of G-CSF treatment, reported by Falanga et al., Blood 1999; cited from earlier work.
Setting [4] is: 78 healthy donors mobilized with G-CSF (Chaidos et al, Blood. 2012).
Where [5] appears, read: Chen et al., 2019, G-CSF N = 112+, 1 LP.
[6] abbreviates: Devine et al, 2008, median yield of 1 LP, plerixafor N = 24, G-CSF N = 8.

B1: G-CSF: Filgrastim (G-CSF), most common clinical hematopoietic stem cell mobilization protocol, five days (protein, UniProt P09919 31-207, looked up)
Granulocyte …: TPLGPASSLPQSFLLKCLEQVRKIQGDGAALQEKLVSECATYKLCHPEELVLLGHSLGIPWAPLSSCPSQALQLAGCLSQLHSGLFLYQGLLQALEGISPELGPTLDTLQLDVADFATTIWQQMEELGMAPALQPTQGAMPAFASAFQRRAGGVLVASHLQSFLEVSYRVLRHLAQP
modifications: filgrastim
Consider B1, for which the Tolerability entry in data set [1] is recorded as “Majority with bone pain,”. Further, the “TNC/kg donor weight, Median (range)” value in data set [2] (40 healthy donors mobilized with G-CSF (Singhal et al, BMT. 2000)) was 7.2 (3.2-14.0) ×10^8 cells. In data set [2] (setting [4]), the “Frequency of CD3+ T cells in graft, Median (range)” value is reported as 45.3 (21.8-75.4) % of CD45+; the “Frequency of CD4+ T cells in graft, Median (range)” value was 29.8 (12.6-56.5) % of CD45+; the “Frequency of CD8+ T cells in graft, Median (range)” value is on record as 11.8 (4.1-29.2) % of CD45+; the “Frequency of CD19+ B cells in graft, Median (range)” value is given as 10.5 (0.9-34.8) % of CD45+. In data set [2] (setting [4]), the “Frequency of CD56+ NK cells in graft, Median (range)” value was 3.2 (0.5-18.4) % of CD45+; the “Frequency of Tregs in graft, Median (range)” value was 3.5 (0.9-8.2) % of CD4+ T cells; the “Frequency of iNKT cells in graft, Median (range)” value is 0.04 (0.00-1.07) % of CD3+. In data set [2] (setting [5]), the “CD3+ in graft, Median” value was 2.5e+08 kg⁻¹; the “CD4+ in graft, Median” value is 1.5e+08 kg⁻¹; the “CD8+ in graft, Median” value is 7e+07 kg⁻¹; the “CD19+ in graft, Median” value was 5e+07 kg⁻¹. In data set [2] (setting [5]), the “CD34+ in graft, Median” value is 4.2e+06 kg⁻¹ and the “CD56+ in graft, Median” value was 1e+07 kg⁻¹. In addition, in data set [2] (setting [6]), the “CD3+ in graft, Median (range)” value was 1.3 (1.2-6.8) ×10^8/kg; the “CD4+ in graft, Median (range)” value is on record as 1.1 (0.7-3.2) ×10^8/kg; the “CD8+ in graft, Median (range)” value is 0.4 (0.3-3.4) ×10^8/kg; the “CD34+ in graft, Median (range)” value is 4.2 (2.5-18.7) ×10^6/kg. The “CD56+ in graft, Median (range)” value in data set [2] (setting [6]) was 0.2 (0.1-0.5) ×10^8/kg. In addition, the “Fold increase in neutrophil activation markers” value in data set [3] was roughly 2.7 fold.
